Assay results taken from patent US20240132626A1 (Eli Lilly, published 2024).

B1: Matuzumab (antibody, V domains shown)
VH: QVQLVQSGAEVKKPGASVKVSCKASGYTFTSHWMHWVRQAPGQGLEWIGEFNPSNGRTNYNEKFKSKATMTVDTSTNTAYMELSSLRSEDTAVYYCASRDYDYDGRYFDYWGQGTLVTVSS
VL: DIQMTQSPSSLSASVGDRVTITCSASSSVTYMYWYQQKPGKAPKLLIYDTSNLASGVPSRFSGSGSGTDYTFTISSLQPEDIATYYCQQWSSHIFTFGQGTKVEIKG
B2: HER-2 X EGFR X cMet TsAb_C_HL (other)
heavy 1: EVQLVESGGGLVQPGGSLRLSCAASGFTFTDYTMDWVRKAPGKGLEWVADVNPNSGGSIYNQEFKGRFTLSVDRSKNTLYLQMNSLRAEDTAVYYCARNLGPSFYFDYWGQGTLVTVSSASTKGPSVFPLAPSSKSTSGGTAALGCLVKDYFPEPVTVSWNSGALTSGVATGPAVLQSSGLYSLSSVVTVPSSSLGTQTYICNVNHKPSNTKVDKKVEPKSCDKTHTCPPCPAPEAAGGPSVFLFPPKPKDTLMISRTPEVTCVVVDVSHEDPEVKFNWYVDGVEVHNAKTKPREQYQSTYRVVSVLTVLHQDWLNGKEYKCKVSNKALPAPIEKTISKAKGQPREPQVSTLPPSREEMTKNQVSLMCLVYGFYPSDIAVEWESNGQPENNYKTTPPVLDSDGSFFLYSVLTVDKSRWQQGNVFSCSVMHEALHNHYTQKSLSLSPGKGGGGSGGGGSGGGGSGGGGSEVQLVESGGGLVQPGGSLRLSCAASGYTFTSYWLHWVRQAPGKGLEWVGMIDPSNSDTRFNPNFKDRFTISADTSKNTAYLQMNSLRAEDTAVYYCATYRSYVTPLDYWGRGTLVTVSSASTKGPSVFPLAPSSKSTSGGTAALGCLVADYFPEPVTVSWNSGALTSGVHTFPAVLQSSGLYSLSSVVTVPSSSLGTQTYICNVNHKPSNTKVDERVEPKSC
light 1: RIQMTQSPSSLSASVGDRVTITCKASQDVSIGVAWYQDKPGKAPKLLIYSASYRYTGVPSRFSGSGSGTDFTLTISSLQPEDFATYYCQQYYIYPYTFGQGTKVEIKGQPKAAPSVTLFPPSSEELQANKATLVCYISDFYPGAVTVAWKADSSPVKAGVETTTPSKQSNNKYAAWSYLSLTPEQWKSHRSYSCQVTHEGSTVEKTVAPTEC
heavy 2: QVQLVQSGAEVKKPGASVKVSCKASGYTFTSHWMHWVRYAPGQGLEWIGEFNPSNGRTNYNEKFKSKATMTVDTSTNTAYMELSSLRSEDTAVYYCASRDYDYDGRYFDYWGQGTLVTVSSASTKGPSVFPLAPCSKSTSGGTAALGCLVKDYFPEPVTVSWNSGALTSGVHTFPAVLQSSGLYSLSSVVTVPSSSLGTQTYICNVNHKPSNTKVDKKVEPDSGDKTHTCPPCPAPEAAGGPSVFLFPPKPKDTLMISRTPEVTCVVVDVSHEDPEVKFNWYVDGVEVHNAKTKPREEQYQSTYRVVSVLTVLHQDWLNGKEYKCKVSNKALPAPIEKTISKAKGQPREPQVYTLPPSRGDMTKNQVQLTCLVKGFYPSDIAVEWESNGQPENNYKTTPPVLDSDGSFFLASKLTVDKSRWQQGNVFSCSVMHEALHNHYTQKSLSLSPGKGGGGSGGGGSGGGGSGGGGSDIQMTQSPSSLSASVGDRVTITCKSSQSLLYTSSQKNYLAWYQQKPGDAPKLLIYWASTRESGVPSRFSGSGSGTDFTLTISSLQPEDFATYYCQQYYAYPWTFGQGTKVEIKRTVAAPSVFIFPPSDKQLKSGTARVVCLLNNFYPREAKVQWKVDNALQSGNSQESVTEQDSKDSTYSLISTLTLSKADYEKHKVYACEVTHQGLSSPVTKSFNRGEC
light 2: DIQMTQSPSSLSASVGDRVTITCSASSSVTYMYWYQRKPGKAPKLLIYDTSNLASGVPSRFSGSGSGTDYTFTISSLQPEDIATYYCQQWSSHIFTFGQGTKVEIKRTVAAPSVFIFPPSKEQLKSGTASVVCLLNNFYPREAKVQWKVDNALQSGNSQESVTEQDSKDSTYSLSSTLTLSKADYEKHKVYACEVTHQGLSSPVTKSFNRGEC
notes: Trispecific IgG-Fab antibody with Fabs from pertuzumab, matuzumab and MetMAb; the anti-cMet Fab is dually tethered at the C-terminus of the heterodimeric Fc
B3: HER-2 X EGFR X cMet TsAb_N_H (other)
heavy 1: EVQLVESGGGLVQPGGSLRLSCAASGYTFTSYWLHWVRQAPGKGLEWVGMIDPSNSDTRFNPNFKDRFTISADTSKNTAYLQMNSLRAEDTAVYYCATYRSYVTPLDYWGRGTLVTVSSASTKGPSVFPLAPSSKSTSGGTAALGCLVADYFPEPVTVSWNSGALTSGVHTFPAVLQSSGLYSLSSVVTVPSSSLGTQTYICNVNHKPSNTKVDERVEPKSCGGGGSGGGGSGGGGSGGGGSGGGGSQVQLVQSGAEVKKPGASVKVSCKASGYTFTSHWMHWVRYAPGQGLEWIGEFNPSNGRTNYNEKFKSKATMTVDTSTNTAYMELSSLRSEDTAVYYCASRDYDYDGRYFDYWGQGTLVTVSSASTKGPSVFPLAPCSKSTSGGTAALGCLVKDYFPEPVTVSWNSGALTSGVHTFPAVLQSSGLYSLSSVVTVPSSSLGTQTYICNVNHKPSNTKVDKKVEPDSGDKTHTCPPCPAPEAAGGPSVFLFPPKPKDTLMISRTPEVTCVVVDVSHEDPEVKFNWYVDGVEVHNAKTKPREEQYQSTYRVVSVLTVLHQDWLNGKEYKCKVSNKALPAPIEKTISKAKGQPREPQVYTLPPSRGDMTKNQVQLTCLVKGFYPSDIAVEWESNGQPENNYKTTPPVLDSDGSFFLASKLTVDKSRWQQGNVFSCSVMHEALHNHYTQKSLSLSPG
light 1: B2 light 2
heavy 2: EVQLVESGGGLVQPGGSLRLSCAASGFTFTDYTMDWVRKAPGKGLEWVADVNPNSGGSIYNQEFKGRFTLSVDRSKNTLYLQMNSLRAEDTAVYYCARNLGPSFYFDYWGQGTLVTVSSASTKGPSVFPLAPSSKSTSGGTAALGCLVKDYFPEPVTVSWNSGALTSGVATGPAVLQSSGLYSLSSVVTVPSSSLGTQTYICNVNHKPSNTKVDKKVEPKSCDKTHTCPPCPAPEAAGGPSVFLFPPKPKDTLMISRTPEVTCVVVDVSHEDPEVKFNWYVDGVEVHNAKTKPREEQYQSTYRVVSVLTVLHQDWLNGKEYKCKVSNKALPAPIEKTISKAKGQPREPQVSTLPPSREEMTKNQVSLMCLVYGFYPSDIAVEWESNGQPENNYKTTPPVLDSDGSFFLYSVLTVDKSRWQQGNVFSCSVMHEALHNHYTQKSLSLSPG
light 2: B2 light 1
light 3: DIQMTQSPSSLSASVGDRVTITCKSSQSLLYTSSQKNYLAWYQQKPGDAPKLLIYWASTRESGVPSRFSGSGSGTDFTLTISSLQPEDFATYYCQQYYAYPWTFGQGTKVEIKRTVAAPSVFIFPPSDKQLKSGTARVVCLLNNFYPREAKVQWKVDNALQSGNSQESVTEQDSKDSTYSLISTLTLSKADYEKHKVYACEVTHQGLSSPVTKSFNRGEC
notes: Trispecific IgG-Fab antibody; the anti-cMet Fab is fused N-terminally through its heavy chain fragment
B4: HER-2 X EGFR X cMet TsAb_C_L (other)
heavy 1: B3 heavy 2
light 1: B2 light 1
chain: EVQLVESGGGLVQPGGSLRLSCAASGYTFTSYWLHWVRQAPGKGLEWVGMIDPSNSDTRFNPNFKDRFTISADTSKNTAYLQMNSLRAEDTAVYYCATYRSYVTPLDYWGRGTLVTVSSASTKGPSVFPLAPSSKSTSGGTAALGCLVADYFPEPVTVSWNSGALTSGVHTFPAVLQSSGLYSLSSVVTVPSSSLGTQTYICNVNHKPSNTKVDERVEPKSC
heavy 2: B2 heavy 2
light 2: B2 light 2
notes: Trispecific IgG-Fab antibody; the anti-cMet Fab is tethered through its light chain only at the C-terminus of HC2
B5: HER-2 X EGFR X cMet TsAb_N_L (other)
heavy 1: DIQMTQSPSSLSASVGDRVTITCKSSQSLLYTSSQKNYLAWYQQKPGDAPKLLIYWASTRESGVPSRFSGSGSGTDFTLTISSLQPEDFATYYCQQYYAYPWTFGQGTKVEIKRTVAAPSVFIFPPSDKQLKSGTARVVCLLNNFYPREAKVQWKVDNALQSGNSQESVTEQDSKDSTYSLISTLTLSKADYEKHKVYACEVTHQGLSSPVTKSFNRGECGGGGSGGGGSGGGGSGGGGSGGGGSQVQLVQSGAEVKKPGASVKVSCKASGYTFTSHWMHWVRYAPGQGLEWIGEFNPSNGRTNYNEKFKSKATMTVDTSTNTAYMELSSLRSEDTAVYYCASRDYDYDGRYFDYWGQGTLVTVSSASTKGPSVFPLAPCSKSTSGGTAALGCLVKDYFPEPVTVSWNSGALTSGVHTFPAVLQSSGLYSLSSVVTVPSSSLGTQTYICNVNHKPSNTKVDKKVEPDSGDKTHTCPPCPAPEAAGGPSVFLFPPKPKDTLMISRTPEVTCVVVDVSHEDPEVKFNWYVDGVEVHNAKTKPREEQYQSTYRVVSVLTVLHQDWLNGKEYKCKVSNKALPAPIEKTISKAKGQPREPQVYTLPPSRGDMTKNQVQLTCLVKGFYPSDIAVEWESNGQPENNYKTTPPVLDSDGSFFLASKLTVDKSRWQQGNVFSCSVMHEALHNHYTQKSLSLSPG
light 1: B2 light 2
heavy 2: B3 heavy 2
light 2: B2 light 1
chain: B4 chain
notes: Trispecific IgG-Fab antibody; the anti-cMet Fab is fused N-terminally through its light chain

Target: T1, Soluble human EGFR ECD protein (human, UniProt P00533 25-645)
T1 construct: extracellular domain; His-tagged
Test: SPR, captured via anti-human kappa, soluble ECD injected

Question: What does the source list for B1?
Answer: Kd: 13 nM; koff: 0.0083 s⁻¹; kon: 650000 M⁻¹ s⁻¹

Question: What does the source list for B2?
Answer: Kd: 10 nM; koff: 0.0085 s⁻¹; kon: 850000 M⁻¹ s⁻¹

Question: Which results are given for B3?
Answer: Kd: 13 nM; koff: 0.0085 s⁻¹; kon: 680000 M⁻¹ s⁻¹

Question: What does the source list for B4?
Answer: Kd: 4.5 nM; koff: 0.0086 s⁻¹; kon: 1.9e+06 M⁻¹ s⁻¹

Question: How did the Kd turn out when B5 was run?
Answer: Its Kd is 13 nM.

Question: And the koff?
Answer: Its koff is 0.009 s⁻¹.

Question: What about the kon of the same binder?
Answer: The kon was 720000 M⁻¹ s⁻¹.

Target: T2, Soluble human HER-2 extracellular domain (ECD) protein (human, UniProt P04626 23-652)
T2 construct: extracellular domain; His-tagged
Test: as above

Question: How did the Kd turn out when B2 was run?
Answer: The Kd was 1.2 nM.

Question: What about the koff of the same binder?
Answer: Its koff is 0.00027 s⁻¹.

Question: What about the kon of the same binder?
Answer: Its kon is 230000 M⁻¹ s⁻¹.

Question: With B3 as the binder, how does the Kd read?
Answer: Its Kd is 1.1 nM.

Question: What about the koff of the same binder?
Answer: Its koff is 0.00026 s⁻¹.

Question: And the kon?
Answer: Its kon is 230000 M⁻¹ s⁻¹.

Question: For B4, which Kd is on record?
Answer: Its Kd is 0.8 nM.

Question: What about the koff of the same binder?
Answer: Its koff is 0.00039 s⁻¹.

Question: What about the kon of the same binder?
Answer: The kon was 520000 M⁻¹ s⁻¹.

Question: What does the source list for B5?
Answer: Kd: 0.9 nM; koff: 0.00024 s⁻¹; kon: 260000 M⁻¹ s⁻¹

Target: T3, Soluble human cMet extracellular domain (ECD) protein (human, UniProt P08581 25-932)
T3 construct: extracellular domain; His-tagged
Test: as above

T3 sequence (P08581 25-932): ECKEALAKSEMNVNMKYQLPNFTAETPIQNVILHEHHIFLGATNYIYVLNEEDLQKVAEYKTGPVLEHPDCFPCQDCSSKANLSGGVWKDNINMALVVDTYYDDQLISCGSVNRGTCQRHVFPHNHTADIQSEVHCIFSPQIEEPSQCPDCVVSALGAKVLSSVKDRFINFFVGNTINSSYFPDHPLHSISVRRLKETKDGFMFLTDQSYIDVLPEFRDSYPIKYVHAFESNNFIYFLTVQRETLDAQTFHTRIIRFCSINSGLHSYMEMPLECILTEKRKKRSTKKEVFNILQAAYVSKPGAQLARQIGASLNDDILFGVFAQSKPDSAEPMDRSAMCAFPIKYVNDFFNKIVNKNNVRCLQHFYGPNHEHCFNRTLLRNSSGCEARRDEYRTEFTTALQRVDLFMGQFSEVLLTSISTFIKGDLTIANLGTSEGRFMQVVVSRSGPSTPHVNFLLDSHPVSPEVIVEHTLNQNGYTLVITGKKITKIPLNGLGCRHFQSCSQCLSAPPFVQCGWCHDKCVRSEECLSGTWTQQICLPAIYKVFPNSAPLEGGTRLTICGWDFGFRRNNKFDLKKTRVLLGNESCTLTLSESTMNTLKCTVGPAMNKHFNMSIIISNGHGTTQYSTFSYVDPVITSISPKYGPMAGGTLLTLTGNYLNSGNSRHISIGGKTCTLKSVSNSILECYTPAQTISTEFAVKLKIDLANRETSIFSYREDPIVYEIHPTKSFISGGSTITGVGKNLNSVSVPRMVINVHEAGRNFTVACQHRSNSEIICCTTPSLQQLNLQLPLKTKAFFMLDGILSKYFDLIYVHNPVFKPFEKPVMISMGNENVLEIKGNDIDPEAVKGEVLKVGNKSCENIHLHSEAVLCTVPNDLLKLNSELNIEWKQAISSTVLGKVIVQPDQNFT

Question: Which Kd does the source give for B2 here?
Answer: The Kd was 74 nM.

Question: And the koff?
Answer: Its koff is 0.00025 s⁻¹.

Question: What about the kon of the same binder?
Answer: The kon was 3400 M⁻¹ s⁻¹.

Question: B3 was tested. Which Kd did it give?
Answer: The Kd was 0.31 nM.

Question: What about the koff of the same binder?
Answer: Its koff is 0.00016 s⁻¹.

Question: And the kon?
Answer: Its kon is 520000 M⁻¹ s⁻¹.

Question: With B4 as the binder, how does the Kd read?
Answer: The Kd was 0.69 nM.

Question: What about the koff of the same binder?
Answer: Its koff is 0.00025 s⁻¹.

Question: What about the kon of the same binder?
Answer: The kon was 360000 M⁻¹ s⁻¹.

Question: Which Kd does the source give for B5 here?
Answer: The Kd was 0.36 nM.

Question: And the koff?
Answer: The koff was 0.00016 s⁻¹.

Question: What about the kon of the same binder?
Answer: Its kon is 440000 M⁻¹ s⁻¹.
